US20230235013A1 (MABSOLVE, published 2023)
Substitutions are numbered along the chain they refer to. Numbers in names are those of the source.

B1: anti-CD20 human IgG1 L234H/L235A/G236R (antibody)
heavy: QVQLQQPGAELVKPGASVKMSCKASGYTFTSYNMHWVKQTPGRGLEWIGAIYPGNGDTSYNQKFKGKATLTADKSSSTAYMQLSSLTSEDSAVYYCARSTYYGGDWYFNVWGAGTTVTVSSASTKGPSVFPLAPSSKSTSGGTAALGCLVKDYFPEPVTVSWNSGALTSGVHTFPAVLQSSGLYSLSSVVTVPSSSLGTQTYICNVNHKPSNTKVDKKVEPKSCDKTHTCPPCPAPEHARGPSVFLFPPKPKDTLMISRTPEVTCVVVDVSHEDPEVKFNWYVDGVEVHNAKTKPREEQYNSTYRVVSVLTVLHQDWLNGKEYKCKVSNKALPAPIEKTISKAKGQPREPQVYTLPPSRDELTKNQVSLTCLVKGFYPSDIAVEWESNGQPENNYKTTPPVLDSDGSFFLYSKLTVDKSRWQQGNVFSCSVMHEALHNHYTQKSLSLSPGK
light: QIVLSQSPAILSASPGEKVTMTCRASSSVSYIHWFQQKPGSSPKPWIYATSNLASGVPVRFSGSGSGTSYSLTISRVEAEDAATYYCQQWTSNPPTFGGGTKLEIKRTVAAPSVFIFPPSDEQLKSGTASVVCLLNNFYPREAKVQWKVDNALQSGNSQESVTEQDSKDSTYSLSSTLTLSKADYEKHKVYACEVTHQGLSSPVTKSFNRGEC
notes: also called 1-62; copies: 2 + 2
B2: anti-CD20 human IgG1 L234H/L235D/G236R (antibody)
heavy: QVQLQQPGAELVKPGASVKMSCKASGYTFTSYNMHWVKQTPGRGLEWIGAIYPGNGDTSYNQKFKGKATLTADKSSSTAYMQLSSLTSEDSAVYYCARSTYYGGDWYFNVWGAGTTVTVSSASTKGPSVFPLAPSSKSTSGGTAALGCLVKDYFPEPVTVSWNSGALTSGVHTFPAVLQSSGLYSLSSVVTVPSSSLGTQTYICNVNHKPSNTKVDKKVEPKSCDKTHTCPPCPAPEHDRGPSVFLFPPKPKDTLMISRTPEVTCVVVDVSHEDPEVKFNWYVDGVEVHNAKTKPREEQYNSTYRVVSVLTVLHQDWLNGKEYKCKVSNKALPAPIEKTISKAKGQPREPQVYTLPPSRDELTKNQVSLTCLVKGFYPSDIAVEWESNGQPENNYKTTPPVLDSDGSFFLYSKLTVDKSRWQQGNVFSCSVMHEALHNHYTQKSLSLSPGK
light: B1 light
notes: also called 1-63; copies: 2 + 2
B3: anti-CD20 human IgG1 L234H/L235E/G236R (antibody)
heavy: B2 heavy with D239E
light: B1 light
notes: also called 1-64; copies: 2 + 2
B4: anti-CD20 human IgG1 L234H/L235G/G236R (antibody)
heavy: B2 heavy with D239G
light: B1 light
notes: also called 1-65; copies: 2 + 2
B5: anti-CD20 human IgG1 L234H/L235H/G236R (antibody)
heavy: B2 heavy with D239H
light: B1 light
notes: also called 1-66; copies: 2 + 2
B6: anti-CD20 human IgG1 L234H/L235K/G236R (antibody)
heavy: B2 heavy with D239K
light: B1 light
notes: also called 1-68; copies: 2 + 2
B7: anti-CD20 human IgG1 L234H/L235M/G236R (antibody)
heavy: B2 heavy with D239M
light: B1 light
notes: also called 1-70; copies: 2 + 2
B8: anti-CD20 human IgG1 L234H/L235N/G236R (antibody)
heavy: B2 heavy with D239N
light: B1 light
notes: also called 1-71; copies: 2 + 2
B9: anti-CD20 human IgG1 L234H/L235Q/G236R (antibody)
heavy: B2 heavy with D239Q
light: B1 light
notes: also called 1-72; copies: 2 + 2
B10: anti-CD20 human IgG1 L234H/L235R/G236R (antibody)
heavy: B2 heavy with D239R
light: B1 light
notes: also called 1-73; copies: 2 + 2
B11: anti-CD20 human IgG1 L234H/L235S/G236R (antibody)
heavy: B2 heavy with D239S
light: B1 light
notes: also called 1-74; 2-21; copies: 2 + 2
B12: anti-CD20 human IgG1 L234H/L235T/G236R (antibody)
heavy: B2 heavy with D239T
light: B1 light
notes: also called 1-75; copies: 2 + 2
B13: anti-CD20 human IgG1 L234H/L235V/G236R (antibody)
heavy: B2 heavy with D239V
light: B1 light
notes: also called 1-76; copies: 2 + 2
B14: anti-CD20 human IgG1 L234K/G236R (antibody)
heavy: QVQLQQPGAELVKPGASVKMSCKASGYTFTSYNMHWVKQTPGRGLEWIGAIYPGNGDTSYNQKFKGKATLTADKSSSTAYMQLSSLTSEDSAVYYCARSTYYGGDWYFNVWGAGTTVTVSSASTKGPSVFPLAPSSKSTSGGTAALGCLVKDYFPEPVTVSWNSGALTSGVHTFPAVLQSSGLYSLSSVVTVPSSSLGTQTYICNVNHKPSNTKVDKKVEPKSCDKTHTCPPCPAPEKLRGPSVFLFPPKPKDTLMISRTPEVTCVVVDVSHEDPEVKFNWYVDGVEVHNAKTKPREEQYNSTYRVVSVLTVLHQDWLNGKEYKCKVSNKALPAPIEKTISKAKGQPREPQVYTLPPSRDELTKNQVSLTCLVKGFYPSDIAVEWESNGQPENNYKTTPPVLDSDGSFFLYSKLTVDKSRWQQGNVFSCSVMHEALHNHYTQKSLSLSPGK
light: B1 light
notes: also called 1-84; copies: 2 + 2
B15: anti-CD20 human IgG1 L234K/L235A/G236R (antibody)
heavy: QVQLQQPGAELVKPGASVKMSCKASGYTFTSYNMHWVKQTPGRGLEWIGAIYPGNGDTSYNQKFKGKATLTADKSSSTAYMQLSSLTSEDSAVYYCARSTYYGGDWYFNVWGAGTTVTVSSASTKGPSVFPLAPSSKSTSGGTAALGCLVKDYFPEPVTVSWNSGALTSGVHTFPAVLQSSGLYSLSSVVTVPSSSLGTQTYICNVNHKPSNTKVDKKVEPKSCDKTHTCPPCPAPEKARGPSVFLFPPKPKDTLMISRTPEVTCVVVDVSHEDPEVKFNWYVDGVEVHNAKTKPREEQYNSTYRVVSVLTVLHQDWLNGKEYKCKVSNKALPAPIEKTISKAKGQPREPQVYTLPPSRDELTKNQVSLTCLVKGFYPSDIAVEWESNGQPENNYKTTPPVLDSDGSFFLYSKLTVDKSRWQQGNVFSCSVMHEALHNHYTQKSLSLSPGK
light: B1 light
notes: also called 1-77; copies: 2 + 2
B16: anti-CD20 human IgG1 L234K/L235E/G236R (antibody)
heavy: B2 heavy with H238K, D239E
light: B1 light
notes: also called 1-79; copies: 2 + 2
B17: anti-CD20 human IgG1 L234K/L235G/G236R (antibody)
heavy: B2 heavy with H238K, D239G
light: B1 light
notes: also called 1-80; copies: 2 + 2
B18: anti-CD20 human IgG1 L234K/L235H/G236R (antibody)
heavy: B2 heavy with H238K, D239H
light: B1 light
notes: also called 1-81; copies: 2 + 2
B19: anti-CD20 human IgG1 L234K/L235I/G236R (antibody)
heavy: B2 heavy with H238K, D239I
light: B1 light
notes: also called 1-82; copies: 2 + 2
B20: anti-CD20 human IgG1 L234K/L235K/G236R (antibody)
heavy: B2 heavy with H238K, D239K
light: B1 light
notes: also called 1-83; copies: 2 + 2
B21: anti-CD20 human IgG1 L234K/L235M/G236R (antibody)
heavy: B2 heavy with H238K, D239M
light: B1 light
notes: also called 1-85; copies: 2 + 2
B22: anti-CD20 human IgG1 L234K/L235N/G236R (antibody)
heavy: B2 heavy with H238K, D239N
light: B1 light
notes: also called 1-86; copies: 2 + 2
B23: anti-CD20 human IgG1 L234K/L235Q/G236R (antibody)
heavy: B2 heavy with H238K, D239Q
light: B1 light
notes: also called 1-87; 2-22; copies: 2 + 2
B24: anti-CD20 human IgG1 L234N/G236R (antibody)
heavy: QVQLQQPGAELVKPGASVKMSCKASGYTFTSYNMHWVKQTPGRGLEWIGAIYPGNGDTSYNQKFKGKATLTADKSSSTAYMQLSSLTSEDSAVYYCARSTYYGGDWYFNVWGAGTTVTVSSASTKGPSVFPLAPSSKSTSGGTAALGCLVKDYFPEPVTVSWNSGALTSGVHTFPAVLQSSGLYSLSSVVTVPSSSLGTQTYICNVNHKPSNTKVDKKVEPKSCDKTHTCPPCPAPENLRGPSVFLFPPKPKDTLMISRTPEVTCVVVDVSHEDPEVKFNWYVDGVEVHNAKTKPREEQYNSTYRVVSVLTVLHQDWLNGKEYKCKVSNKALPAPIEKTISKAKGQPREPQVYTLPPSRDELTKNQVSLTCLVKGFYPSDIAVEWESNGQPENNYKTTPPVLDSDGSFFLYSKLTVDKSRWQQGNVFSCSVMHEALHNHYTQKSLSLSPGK
light: B1 light
notes: also called 1-99; copies: 2 + 2
B25: anti-CD20 human IgG1 L234N/L235A/G236R (antibody)
heavy: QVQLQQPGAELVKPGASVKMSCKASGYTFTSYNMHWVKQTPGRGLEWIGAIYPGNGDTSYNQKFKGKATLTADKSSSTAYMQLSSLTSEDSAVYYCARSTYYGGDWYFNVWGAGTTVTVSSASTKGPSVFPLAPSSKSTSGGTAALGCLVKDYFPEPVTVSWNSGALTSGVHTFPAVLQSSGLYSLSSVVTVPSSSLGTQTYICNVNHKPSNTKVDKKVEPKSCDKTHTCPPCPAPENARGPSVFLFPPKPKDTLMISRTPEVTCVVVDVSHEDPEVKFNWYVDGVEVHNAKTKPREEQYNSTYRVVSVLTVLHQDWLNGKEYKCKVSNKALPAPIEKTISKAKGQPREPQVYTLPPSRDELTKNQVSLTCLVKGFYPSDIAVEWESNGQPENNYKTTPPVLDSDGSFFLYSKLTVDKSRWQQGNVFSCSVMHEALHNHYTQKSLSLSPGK
light: B1 light
notes: also called 1-92; copies: 2 + 2

What follows are binders tested against T1, Histidine-tagged recombinant human FcγRI (CD64) (human, UniProt P12314 16-288) (assay: SPR, culture supernatant, captured His-FcγRI;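 also: biacore T200 SPR at 25 °C, anti-His capture, supernatants of HEK293 cells expressing IgG1 Fc variants injected 1 min, reference-subtracted response read 55 s after injection start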).
T1 construct: bought; also called Sino Biological Cat. No. 12056-H08H

Mean binding response | Binder
29.4 RU | B1
38.5 RU | B2
22.8 RU | B3
31.6 RU | B4
36.3 RU | B5
29.2 RU | B6
31.3 RU | B7
24.6 RU | B8
33.3 RU | B9
35.3 RU | B10
10.9 RU | B11
44.9 RU | B12
25.6 RU | B13
31.2 RU | B14
23 RU | B15
29.9 RU | B16
27.4 RU | B17
25.3 RU | B18
30.9 RU | B19
37.6 RU | B20
23.9 RU | B21
24.8 RU | B22
8.4 RU | B23
22.3 RU | B24
22.3 RU | B25
